Laboratory results as given in US20260242735A1 (UNIVERSIT T BASEL, published 2026).

What was measured:
human CD33 P132S = human CD33 P132S (human, UniProt P20138 18-364); assay: flow cytometry, HEK293-T, IgG;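 also: CD33 point mutants transiently expressed, antibody binding measured by fluorescence in duplicate, background subtracted and scaled to binding on wild-type CD33 as 100%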
Description: (§1) An alanine scan on human CD33 was performed to the determine the residues on CD33 that are involved in binding to the antibodies investigated. […] Briefly, a mutation library of CD33 was created by high-throughput, site-directed mutagenesis. Each residue was individually mutated to alanine, with alanine codons mutated to serine. The mutant library was arrayed in 384-well microplates and transiently transfected into HEK293-T. Following transfection, cells were incubated with the indicated antibodies (IgG or Fab) at concentrations pre-determined using an independent immunofluorescence titration curve on wild type CD33. […] Binding of each antibody to each mutant clone was determined in duplicates. For each point, background fluorescence was subtracted from the raw data, which were then normalized to antibody reactivity with wild type CD33.
(§2) Antibodies were screened for binding to the human CD33 variants in IgG format. […] For each mutation, background fluorescence was subtracted from the raw data, which were then normalized to antibody reactivity with wild-type CD33.

human CD33 S131D = human CD33 S131D (human, UniProt P20138 18-364); assay: flow cytometry, HEK293-T, IgG;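 also: CD33 point mutants transiently expressed, antibody binding measured by fluorescence in duplicate, background subtracted and scaled to binding on wild-type CD33 as 100%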
Chain of human CD33 S131D (P20138 18-364 S131D limits assumed): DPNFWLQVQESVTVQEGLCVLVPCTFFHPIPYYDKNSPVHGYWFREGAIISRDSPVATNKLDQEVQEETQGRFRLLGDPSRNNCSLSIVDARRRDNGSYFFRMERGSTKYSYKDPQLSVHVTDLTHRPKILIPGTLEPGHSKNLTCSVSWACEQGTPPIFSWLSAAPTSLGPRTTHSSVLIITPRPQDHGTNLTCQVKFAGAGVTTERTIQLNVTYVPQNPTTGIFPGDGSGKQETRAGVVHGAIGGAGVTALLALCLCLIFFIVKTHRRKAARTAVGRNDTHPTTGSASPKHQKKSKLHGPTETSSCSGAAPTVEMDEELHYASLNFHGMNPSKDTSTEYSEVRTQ
Description: as §1, §2

human CD33 L134M = human CD33 L134M (human, UniProt P20138 18-364); assay: flow cytometry, HEK293-T, IgG;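 also: CD33 point mutants transiently expressed, antibody binding measured by fluorescence in duplicate, background subtracted and scaled to binding on wild-type CD33 as 100%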
Chain of human CD33 L134M (P20138 18-364 L134M limits assumed): as the sequence (P20138 18-364 S131D limits assumed) above, with D114S, L117M counted along it
Description: as §1, §2

human CD33 P132D = human CD33 P132D (human, UniProt P20138 18-364); assay: flow cytometry, HEK293-T, IgG;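 also: CD33 point mutants transiently expressed, antibody binding measured by fluorescence in duplicate, background subtracted and scaled to binding on wild-type CD33 as 100%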
Chain of human CD33 P132D (P20138 18-364 P132D limits assumed): as the sequence (P20138 18-364 S131D limits assumed) above, with D114S, P115D counted along it
Description: as §1, §2

human CD33 S131Q = human CD33 S131Q (human, UniProt P20138 18-364); assay: flow cytometry, HEK293-T, IgG
Chain of human CD33 S131Q (P20138 18-364 S131Q limits assumed): as the sequence (P20138 18-364 S131D limits assumed) above, with D114Q counted along it
Description: as §1, §2

human CD33 S131T = human CD33 S131T (human, UniProt P20138 18-364); assay: flow cytometry, HEK293-T, IgG
Chain of human CD33 S131T (P20138 18-364 S131T limits assumed): as the sequence (P20138 18-364 S131D limits assumed) above, with D114T counted along it
Description: as §1, §2

human CD33 P132V = human CD33 P132V (human, UniProt P20138 18-364); assay: flow cytometry, HEK293-T, IgG
Chain of human CD33 P132V (P20138 18-364 P132V limits assumed): as the sequence (P20138 18-364 S131D limits assumed) above, with D114S, P115V counted along it
Description: as §1, §2

human CD33 S131M = human CD33 S131M (human, UniProt P20138 18-364); assay: flow cytometry, HEK293-T, IgG
Chain of human CD33 S131M (P20138 18-364 S131M limits assumed): as the sequence (P20138 18-364 S131D limits assumed) above, with D114M counted along it
Description: as §1, §2

human CD33 L134I = human CD33 L134I (human, UniProt P20138 18-364); assay: flow cytometry, HEK293-T, IgG
Chain of human CD33 L134I (P20138 18-364 L134I limits assumed): as the sequence (P20138 18-364 S131D limits assumed) above, with D114S, L117I counted along it
Description: as §1, §2

human CD33 L134T = human CD33 L134T (human, UniProt P20138 18-364); assay: flow cytometry, HEK293-T, IgG
Chain of human CD33 L134T (P20138 18-364 L134T limits assumed): as the sequence (P20138 18-364 S131D limits assumed) above, with D114S, L117T counted along it
Description: as §1, §2

human CD33 L134Q = human CD33 L134Q (human, UniProt P20138 18-364); assay: flow cytometry, HEK293-T, IgG
Chain of human CD33 L134Q (P20138 18-364 L134Q limits assumed): as the sequence (P20138 18-364 S131D limits assumed) above, with D114S, L117Q counted along it
Description: as §1, §2

human CD33 P132Y = human CD33 P132Y (human, UniProt P20138 18-364); assay: flow cytometry, HEK293-T, IgG
Chain of human CD33 P132Y (P20138 18-364 P132Y limits assumed): as the sequence (P20138 18-364 S131D limits assumed) above, with D114S, P115Y counted along it
Description: as §1, §2

human CD33 S131H = human CD33 S131H (human, UniProt P20138 18-364); assay: flow cytometry, HEK293-T, IgG
Chain of human CD33 S131H (P20138 18-364 S131H limits assumed): as the sequence (P20138 18-364 S131D limits assumed) above, with D114H counted along it
Description: as §1, §2

human CD33 P132K = human CD33 P132K (human, UniProt P20138 18-364); assay: flow cytometry, HEK293-T, IgG
Chain of human CD33 P132K (P20138 18-364 P132K limits assumed): as the sequence (P20138 18-364 S131D limits assumed) above, with D114S, P115K counted along it
Description: as §1, §2

human CD33 S131W = human CD33 S131W (human, UniProt P20138 18-364); assay: flow cytometry, HEK293-T, IgG
Chain of human CD33 S131W (P20138 18-364 S131W limits assumed): as the sequence (P20138 18-364 S131D limits assumed) above, with D114W counted along it
Description: as §1, §2

human CD33 L134R = human CD33 L134R (human, UniProt P20138 18-364); assay: flow cytometry, HEK293-T, IgG
Chain of human CD33 L134R (P20138 18-364 L134R limits assumed): as the sequence (P20138 18-364 S131D limits assumed) above, with D114S, L117R counted along it
Description: as §1, §2

human CD33 S131F = human CD33 S131F (human, UniProt P20138 18-364); assay: flow cytometry, HEK293-T, IgG
Chain of human CD33 S131F (P20138 18-364 S131F limits assumed): as the sequence (P20138 18-364 S131D limits assumed) above, with D114F counted along it
Description: as §1, §2

human CD33 P132H = human CD33 P132H (human, UniProt P20138 18-364); assay: flow cytometry, HEK293-T, IgG
Chain of human CD33 P132H (P20138 18-364 P132H limits assumed): as the sequence (P20138 18-364 S131D limits assumed) above, with D114S, P115H counted along it
Description: as §1, §2

human CD33 S131Y = human CD33 S131Y (human, UniProt P20138 18-364); assay: flow cytometry, HEK293-T, IgG
Chain of human CD33 S131Y (P20138 18-364 S131Y limits assumed): as the sequence (P20138 18-364 S131D limits assumed) above, with D114Y counted along it
Description: as §1, §2

human CD33 S131I = human CD33 S131I (human, UniProt P20138 18-364); assay: flow cytometry, HEK293-T, IgG
Chain of human CD33 S131I (P20138 18-364 S131I limits assumed): as the sequence (P20138 18-364 S131D limits assumed) above, with D114I counted along it
Description: as §1, §2

human CD33 L134F = human CD33 L134F (human, UniProt P20138 18-364); assay: flow cytometry, HEK293-T, IgG
Chain of human CD33 L134F (P20138 18-364 L134F limits assumed): as the sequence (P20138 18-364 S131D limits assumed) above, with D114S, L117F counted along it
Description: as §1, §2

human CD33 P132Q = human CD33 P132Q (human, UniProt P20138 18-364); assay: flow cytometry, HEK293-T, IgG
Chain of human CD33 P132Q (P20138 18-364 P132Q limits assumed): as the sequence (P20138 18-364 S131D limits assumed) above, with D114S, P115Q counted along it
Description: as §1, §2

human CD33 S131K = human CD33 S131K (human, UniProt P20138 18-364); assay: flow cytometry, HEK293-T, IgG
Chain of human CD33 S131K (P20138 18-364 S131K limits assumed): as the sequence (P20138 18-364 S131D limits assumed) above, with D114K counted along it
Description: as §1, §2

human CD33 P132F = human CD33 P132F (human, UniProt P20138 18-364); assay: flow cytometry, HEK293-T, IgG
Chain of human CD33 P132F (P20138 18-364 P132F limits assumed): as the sequence (P20138 18-364 S131D limits assumed) above, with D114S, P115F counted along it
Description: as §1, §2

human CD33 S131N = human CD33 S131N (human, UniProt P20138 18-364); assay: flow cytometry, HEK293-T, IgG
Chain of human CD33 S131N (P20138 18-364 S131N limits assumed): as the sequence (P20138 18-364 S131D limits assumed) above, with D114N counted along it
Description: as §1, §2

human CD33 P132L = human CD33 P132L (human, UniProt P20138 18-364); assay: flow cytometry, HEK293-T, IgG
Chain of human CD33 P132L (P20138 18-364 P132L limits assumed): as the sequence (P20138 18-364 S131D limits assumed) above, with D114S, P115L counted along it
Description: as §1, §2

human CD33 P132T = human CD33 P132T (human, UniProt P20138 18-364); assay: flow cytometry, HEK293-T, IgG
Chain of human CD33 P132T (P20138 18-364 P132T limits assumed): as the sequence (P20138 18-364 S131D limits assumed) above, with D114S, P115T counted along it
Description: as §1, §2

human CD33 P132N = human CD33 P132N (human, UniProt P20138 18-364); assay: flow cytometry, HEK293-T, IgG
Chain of human CD33 P132N (P20138 18-364 P132N limits assumed): as the sequence (P20138 18-364 S131D limits assumed) above, with D114S, P115N counted along it
Description: as §1, §2

human wild-type CD33 = molecular target: T1, human wild-type CD33 (human, UniProt P20138 18-364); assay: flow cytometry, IgG at 0.25 ug/ml on HEK293-T cells expressing CD33 against vector alone
T1 construct: also called SIGLEC3; P67
T1 sequence (P20138 18-364 limits assumed): as the sequence (P20138 18-364 S131D limits assumed) above, with D114S counted along it
Description: Binding of the antibodies to the transfected cells and the optimal assay conditions were evaluated in 384-well format. Detection of cellular expression was measured via high-throughput flow cytometry. Serial dilutions of each antibody were tested for immunoreactivity against cells expressing CD33 or vector alone. The optimal screening concentration for each antibody was determined based on the raw signal values and signal-to-background calculations. Each point represents the mean of four replicates.

Chain of human CD33 P132S (P20138 18-364 P132S limits assumed): as the sequence (P20138 18-364 S131D limits assumed) above, with D114S, P115S counted along it

Row | Binder | Mean % WT Binding (human CD33 P132S) [% WT binding] | Mean % WT Binding (human CD33 S131D) [% WT binding] | Mean % WT Binding (human CD33 L134M) [% WT binding] | Mean % WT Binding (human CD33 P132D) [% WT binding] | Mean % WT Binding (human CD33 S131Q) [% WT binding] | Mean % WT Binding (human CD33 S131T) [% WT binding] | Mean % WT Binding (human CD33 P132V) [% WT binding] | Mean % WT Binding (human CD33 S131M) [% WT binding] | Mean % WT Binding (human CD33 L134I) [% WT binding] | Mean % WT Binding (human CD33 L134T) [% WT binding] | Mean % WT Binding (human CD33 L134Q) [% WT binding] | Mean % WT Binding (human CD33 P132Y) [% WT binding] | Mean % WT Binding (human CD33 S131H) [% WT binding] | Mean % WT Binding (human CD33 P132K) [% WT binding] | Mean % WT Binding (human CD33 S131W) [% WT binding] | Mean % WT Binding (human CD33 L134R) [% WT binding] | Mean % WT Binding (human CD33 S131F) [% WT binding] | Mean % WT Binding (human CD33 P132H) [% WT binding] | Mean % WT Binding (human CD33 S131Y) [% WT binding] | Mean % WT Binding (human CD33 S131I) [% WT binding] | further results
1 | Refmab #2 (antibody, human IgG1, V domains shown, tested in IgG format) VH: QVQLVQSGAEVKKPGSSVKVSCKASGGTFSDYAISWVRQAPGQGLEWMGRIIPILGVADYAQKFQGRVTITADKSTRTAYMELSSLRSEDTAVYYCARNWADAFDIWGQGTMVTVSS VL: DIQLTQSPSSLSASVGDRVTITCRASQGISSVLAWYQQKPGKAPKLLIYDASSLESGVPSRFSGSGSGTDFTLTISSLQPEDFATYYCQQFDSSITFGQGTKLEIK | 110 | 101 | 105 | 73.6 | 110 | 111 | 102 | 108 | 105 | 99.2 | 77.4 | 65 | 112 | 119 | 92.4 | 2.5 | 111 | 101 | 98.5 | 110 | Mean % WT Binding (human CD33 L134F): 106 % WT binding; Mean % WT Binding (human CD33 P132Q): 83.4 % WT binding; Mean % WT Binding (human CD33 S131K): 91.2 % WT binding; Mean % WT Binding (human CD33 P132F): 65.1 % WT binding; Mean % WT Binding (human CD33 S131N): 126 % WT binding; Mean % WT Binding (human CD33 P132L): 116 % WT binding; Mean % WT Binding (human CD33 P132T): 103 % WT binding; Mean % WT Binding (human CD33 P132N): 100 % WT binding
2 | Refmab #3 (antibody, human IgG1, V domains shown, tested in IgG format) VH: QVQLVQSGAEVKKPGSSVKVSCKASGYTFTDYNMHWVRQAPGQGLEWIGYIYPYNGGTGYNQKFKSKATITADESTNTAYMELSSLRSEDTAVYYCARGRPAMDYWGQGTLVTVSS VL: DIQMTQSPSSLSASVGDRVTITCRASESVDNYGISFMNWFQQKPGKAPKLLIYAASNQGSGVPSRFSGSGSGTDFTLTISSLQPDDFATYYCQQSKEVPWTFGQGTKVEIK | 95.8 | 93.9 | 106 | 92.7 | 93.9 | 116 | 86.6 | 91.9 | 108 | 101 | 87.7 | 85.2 | 100 | 65 | 91.9 | 1 | 103 | 87.8 | 97.4 | 95.7 | Mean % WT Binding (human CD33 L134F): 104 % WT binding; Mean % WT Binding (human CD33 P132Q): 80.1 % WT binding; Mean % WT Binding (human CD33 S131K): 87.7 % WT binding; Mean % WT Binding (human CD33 P132F): 79.4 % WT binding; Mean % WT Binding (human CD33 S131N): 118 % WT binding; Mean % WT Binding (human CD33 P132L): 94.4 % WT binding; Mean % WT Binding (human CD33 P132T): 106 % WT binding; Mean % WT Binding (human CD33 P132N): 94.5 % WT binding
3 | Refmab #4 (antibody, human IgG1, V domains shown, tested in IgG format) VH: QVQLVQSGAEVKKPGESVKVSCKASGYTFTNYGMNWVKQAPGQGLEWMGWINTYTGEPTYADKFQGRVTMTTDTSTSTAYMEIRNLGGDDTAVYYCARWSWSDGYYVYFDYWGQGTSVTVSS VL: DIVMTQSPDSLTVSLGERTTINCKSSQSVLDSSTNKNSLAWYQQKPGQPPKLLLSWASTRESGIPDRFSGSGSGTDFTLTIDSPQPEDSATYYCQQSAHFPITFGQGTRLEIK | 102 | 97.5 | 99 | 99.6 | 97.3 | 102 | 94.7 | 97.6 | 94.4 | 90.3 | 86.8 | 78.6 | 103 | 102 | 87.5 | 2.4 | 91.8 | 92.7 | 85.7 | 99.6 | Mean % WT Binding (human CD33 L134F): 90.6 % WT binding; Mean % WT Binding (human CD33 P132Q): 86.9 % WT binding; Mean % WT Binding (human CD33 S131K): 100 % WT binding; Mean % WT Binding (human CD33 P132F): 71.3 % WT binding; Mean % WT Binding (human CD33 S131N): 105 % WT binding; Mean % WT Binding (human CD33 P132L): 96.7 % WT binding; Mean % WT Binding (human CD33 P132T): 99.8 % WT binding; Mean % WT Binding (human CD33 P132N): 100 % WT binding
4 | Refmab #1 (antibody, human IgG1, V domains shown, Full-length MAb format, human IgG1; also called hP67.6) VH: EVQLVQSGAEVKKPGSSVKVSCKASGYTITDSNIHWVRQAPGQSLEWIGYIYPYNGGTDYNQKFKNRATLTVDNPTNTAYMELSSLRSEDTAFYYCVNGNPWLAYWGQGTLVTVSS VL: DIQLTQSPSTLSASVGDRVTITCRASESLDNYGIRFLTWFQQKPGKAPKLLMYAASNQGSGVPSRFSGSGSGTEFTLTISSLQPDDFATYYCQQTKEVPWSFGQGTKVEVK | – | – | – | – | – | – | – | – | – | – | – | – | – | – | – | – | – | – | – | – | Signal:Background (human wild-type CD33): 44 signal:background ratio
5 | Refmab #1 (antibody, human IgG1, V domains shown, tested in IgG format; also called hP67.6) VH: EVQLVQSGAEVKKPGSSVKVSCKASGYTITDSNIHWVRQAPGQSLEWIGYIYPYNGGTDYNQKFKNRATLTVDNPTNTAYMELSSLRSEDTAFYYCVNGNPWLAYWGQGTLVTVSS VL: DIQLTQSPSTLSASVGDRVTITCRASESLDNYGIRFLTWFQQKPGKAPKLLMYAASNQGSGVPSRFSGSGSGTEFTLTISSLQPDDFATYYCQQTKEVPWSFGQGTKVEVK | 92.9 | 91.9 | 81.2 | 89.9 | 101 | 97.2 | 105 | 105 | 106 | 91.6 | 83 | 93.5 | 96.4 | 99.6 | 97.6 | 3.1 | 95.6 | 84.9 | 97.7 | 96.6 | Mean % WT Binding (human CD33 L134F): 92.5 % WT binding; Mean % WT Binding (human CD33 P132Q): 91.7 % WT binding; Mean % WT Binding (human CD33 S131K): 102 % WT binding; Mean % WT Binding (human CD33 P132F): 91.3 % WT binding; Mean % WT Binding (human CD33 S131N): 94.6 % WT binding; Mean % WT Binding (human CD33 P132L): 94.6 % WT binding; Mean % WT Binding (human CD33 P132T): 98.9 % WT binding; Mean % WT Binding (human CD33 P132N): 91.4 % WT binding
